Experimental data as given in patent US7087717B2, “Sp110, a polypeptide component of the nuclear body” (The General Hospital Corporation, priority 2000, dated 2006).

B1: C-terminal portion: C-terminal portion of Sp110, containing the PHD and the bromodomain, fused to VP16 or GAL4 (protein)
chain: KRKNSDECEVCCQGGQLLCCGTCPRVFHEDCHIPPVEAKRMLWSCTFCRMKRSSGSQQCHHVSKTLERQMQPQDQLIRDYGEPFQEAMWLDLVKERLITEMYTVAWFVRDMRLMFRNHKTFYKASDFGQVGLDLEAEFEKDLKDVLGFHEANDGGFWTLP
modifications: left off: large carriers
notes: C-terminal portion of Sp110, containing the PHD and the bromodomain, fused to VP16 or GAL4
B2: N-terminal portion: N-terminal portion of Sp110, containing the Sp100-like region, fused to VP16 or GAL4 (protein)
chain: MFTMTRAMEEALFQHFMHQKLGIAYAIHKPFPFFEGLLDNSIITKRMYMESLEACRNLIPVSRVVHNILTQLERTFNLSLLVTLFSQINLREYPNLVTIYRSFKRVGASYERQSRDTPILLEAPTGLAEGSSLHTPLALPHHKPPQPSCSPCAPRVSEPGTSSQQSTEILSESPSPSDPVLPLPALIQEGRSTSVTNDKLTSKMNAEEDSEEMPSLLTSTVQVASDNLIP
modifications: left off: large carriers
notes: N-terminal portion of Sp110, containing the Sp100-like region, fused to VP16 or GAL4
B3: Sp110: novel 110 kDa polypeptide component of the nuclear body, 689 amino acids, SEQ ID NO:2 (protein, listed as Homo sapiens)
chain: MFTMTRAMEEALFQHFMHQKLGIAYAIHKPFPFFEGLLDNSIITKRMYMESLEACRNLIPVSRVVHNILTQLERTFNLSLLVTLFSQINLREYPNLVTIYRSFKRVGASYERQSRDTPILLEAPTGLAEGSSLHTPLALPHHKPPQPSCSPCAPRVSEPGTSSQQSTEILSESPSPSDPVLPLPALIQEGRSTSVTNDKLTSKMNAEEDSEEMPSLLTSTVQVASDNLIPQIRDKEDPQEMPHSPLGSMPEIRDNSPEPNDPEEPQEVSSTPSDKKGKKRKRCIWSTPKRRHKKKSLPRGTASSRHGIQKKLKRVDQVPQKKDDSTCNSTVETRAQKARTECARKSRSEEIIDGTSEMNEGKRSQKTPSTPRRVTQGAASPGHGIQEKLQVVDKVTQRKDDSTWNSEVMMRVQKARTKCARKSRSKEKKKEKDICSSSKRRFQKNIHRRGKPKSDTVDFHCSKLPVTCGEAKGILYKKKMKHGSSVKCIRNEDGTWLTPNEFEVEGKGRNAKNWKRNIRCEGTTLGELLKRKNSDECEVCCQGGQLLCCGTCPRVFHEDCHIPPVEAKRMLWSCTFCRMKRSSGSQQCHHVSKTLERQMQPQDQLIRDYGEPFQEAMWLDLVKERLITEMYTVAWFVRDMRLMFRNHKTFYKASDFGQVGLDLEAEFEKDLKDVLGFHEANDGGFWTLP
B4: Sp110m: mutant Sp110 protein in which two of the three LXXLL leucine residues were changed, one to valine and one to alanine (LXXVA) (protein)
chain: B3 chain
B5: IFN-γ: interferon (protein, UniProt P01579 24-161, looked up)
Interferon gamma: QDPYVKEAENLKKYFNAGHSDVADNGTLFLGILKNWKEESDRKIMQSQIVSFYFKLFKNFKDDQSIQKSVETIKEDMNVKFFNSNKKKRDDFEKLTNYSVTDLNVQRKAIHELIQVMAELSPAAKTGKRKRSQMLFRG

Experiments:
CBP = test: Mammalian two-hybrid assay with GAL4-CBP in COS cells; type: cell-based; conditions: VP16 fusions, compared with VP16 alone
Source text: PPARα interacted with the N-terminal portion of CBP/p300 between amino acid residues 39 and 221. To determine whether Sp110 also interacts with CBP, the mammalian two-hybrid system was used as an assay. In this assay, the GAL4 DNA-binding domain (GAL4) fused to CBP (GAL4-CBP) and a luciferase reporter gene containing GAL4 response elements were expressed in COS cells with either Sp110 fused to the herpes simplex virus VP16 activation domain (VP16-Sp110) or VP16 alone. […] Thus, Sp110 interacts, either directly or indirectly, with CBP. The site of functional interaction between Sp110 and CBP was mapped more specifically to amino acid residues 271–720 of CBP. The Sp110-CBP functional interaction domain is therefore distinct from the PPARα-CBP interaction domain.
To identify the portion of Sp110 that functionally interacts with CBP, the N-terminal or C-terminal portions of Sp110 were fused to VP16 and expressed in COS cells together with GAL4CBP and a reporter gene. […] As described below, studies can be carried out to further delineate the domains that mediate functional interaction between Sp110 and CBP and to test whether Sp110 interacts with CBP directly.

[1] = system: CAT reporter plasmid containing five GAL4 binding sites and an SV40 enhancer region (pG5SV-BCAT); test: GAL4 fusion / CAT reporter gene transcription assay in COS cells; type: cell-based
Source text: To examine the potential effect of Sp110 on gene transcription, a eukaryotic expression plasmid encoding Sp110 fused to the DNA-binding domain of GAL4 (pBXG-Sp1110) was co-transfected with a CAT reporter plasmid containing five GAL4 binding sites and an SV40 enhancer region (pG5SV-BCAT) into COS cells.
To identify the portion of Sp110 that enhances reporter gene expression, DNA segments encoding fragments of Sp110 fused to GAL4 were expressed with a reporter gene in COS cells. […] The mechanism by which Sp110 enhances PPARα-mediated gene transcription can be investigated, as described below, by identifying proteins that interact with the activation domain and SAND domain.

RARα response element = test: RAR transcriptional co-activation reporter assay; type: cell-based; conditions: for signal transduction through RARα / expression of the reporter gene: expressed with RARα
Procedure: Experiments were also performed to determine whether Sp110 could function as a retinoic acid receptor (RAR) transcriptional co-activator. […] The extent of reporter gene activation by Sp110 was similar to that induced by the nuclear body component PML.

PPARγ receptor = test: PPARγ signal transduction reporter assay; type: cell-based
PPARα = PPARα co-activation reporter assay (PPRE) in COS cells; type: cell-based; conditions: COS cells co-transfected with PPARα; compared with PPARα expressed alone
Source text: Sp110 also acted as a co-activator of PPARα. […] Sp110 may interact with nuclear hormone receptors via an LXXLL domain. To determine whether Sp110 interacts with PPARα via the LULL domain, oligonucleotides and PCR were used to prepare a mutant Sp110 protein (Sp110m) in which two of the three leucine residues were changed, one to valine and one to alanine (LXXVA).

HL60 cells = test: Sp110 mRNA level by RNA blot after IFN-γ treatment; type: cell-based, human; conditions: 200 units/ml, 48 hours
Procedure: To investigate the expression of Sp110 in cells of the monocyte/granulocyte lineage, RNA was prepared from the myeloid precursor cell lines HL60 and NB4 (HL60 cells are available from the American Type Culture Collection, Manassas, Va.). RNA was extracted from these cell lines using the guanidinium isothiocyanate-cesium chloride method (Sambrook et al., Cold Spring Harbor Laboratory, Cold Spring Harbor, N.Y., 1989). The HL60 cells were maintained in RPMI supplemented with 10% fetal calf serum, L-glutamine (2 mM), penicillin (200 units/ml), and streptomycin (200 mg/ml). RNA was fractionated in formaldehyde-agarose gels (5 μg/lane) and equal loading of RNA was confirmed by staining 28S and 18S ribosomal RNA with ethidium bromide. RNA was transferred to nylon membranes and the membranes were hybridized with the radiolabeled XbaI restriction fragment of the Sp110 cDNA or the EcoRI/BamHI restriction fragment of the cDNA encoding human Sp100 (Bloch et al., J. Biol. Chem. 46:29198–29204, 1996). Membranes were washed and analyzed by autoradiography. Low levels of Sp110 mRNA were detected in both NB4 cells and HL60 cells.
To examine the effect of cellular differentiation on Sp110 mRNA, NB4 cells were treated for 48 hours with all trans retinoic acid (ATRA) (1 μM). […] To examine the effect of IFN-γ treatment on Sp110 mRNA levels, HL60 cells were treated with IFN-γ (200 units/ml) for 48 hours.

Molecule	GAL4-CBP-induced luciferase reporter gene activity (CBP)	reporter gene expression by fragments of Sp110 fused to GAL4 [1]	signal transduction through RARα / expression of the reporter gene (RARα response element)	signal transduction through the PPARγ receptor (PPARγ receptor)	agonist-induced expression of the PPRE reporter gene / activation of the PPARα receptor (PPARα)	also measured
B1	enhanced	Neither the N-terminal (Sp100-like domain), nor the C-terminal (PHD/bromodomain) portions of Sp110 increased expression of the reporter gene				
B2	did not	Neither the N-terminal (Sp100-like domain), nor the C-terminal (PHD/bromodomain) portions of Sp110 increased expression of the reporter gene				
B3			enhanced signal transduction	enhanced signal transduction	markedly enhanced	ATRA-induced expression of the reporter gene (RARα response element; COS cells, reporter with three copies of the RARα response element): significantly enhanced
B4			also enhanced expression of the reporter gene	enhanced signal transduction	less than wild-type Sp110	
B5						Sp110 mRNA level (HL60 cells): marked increase
